In IntAct's records for PubMed 25946333:

B1: Nuclear envelope integral membrane protein 1 (Mus musculus), Q6ZQE4 (parent)
chain: MAGGIKVSVWSAVGPGPRCWGAGGGGGATWLLLVVAGCVVCGSADVNVVMLQESQVDMNSSQQFCYKNVLIPKWHDIWTRIQVRVNSSKLVRVTQVDNEEKLKELEQFSIWNFFSSFLKEKLNDTYVNVGLYSTKTCLKVEMIEKDTTYSVTVTRRFDPKLFLVFLLGLTLFFCGDLLSRSQIFYYSTGMSVGIVASLLIVIFMISKFMPKRSPIYVILVGGWSFSLYLIQLVFKNLQEIWRSYWHYLLSYILTVGFMSFAVCYKYGPLENERSINLLTWTLQLLGLGLMYSSIQIPHVAFALIVIALCTKNLEYPIHWLCSTYRRMCKASGKPVPPRLLTEEEYRIQGEVETQKALQELREFCNSPECSAWKTISRIQSPKRFADFVEGSFHLTPNEVSVHEQEYGLGSIFTQDEELSSEEEGSEYPTFTQNNFLT

Variants of: B1
Conditions: with ran_mouse Ran

Variant | effect of a mutation on the interaction
S366A;S376A;S380A;S419A;S420A | disrupting interaction strength
S366E;S376E;S380E;S419E;S420E | disrupting interaction strength
